Experimental data published in IntAct's records for PubMed 19876371.

B1: Glucose-1-phosphate adenylyltransferase large subunit 1 (Solanum tuberosum (Potato)), Q00081 (parent)
chain: NKIKPGVAYSVITTENDTQTVFVDMPRLERRRANPKDVAAVILGGGEGTKLFPLTSRTATPAVPVGGCYRLIDIPMSNCINSAINKIFVLTQYNSAPLNRHIARTYFGNGVSFGDGFVEVLAATQTPGEAGKKWFQGTADAVRKFIWVFEDAKNKNIENIVVLSGDHLYRMDYMELVQNHIDRNADITLSCAPAEDSRASDFGLVKIDSRGRVVQFAEKPKGFDLKAMQVDTTLVGLSPQDAKKSPYIASMGVYVFKTDVLLKLLKWSYPTSNDFGSEIIPAAIDDYNVQAYIFKDYWEDIGTIKSFYNASLALTQEFPEFQFYDPKTPFYTSPRFLPPTKIDNCKIKDAIISHGCFLRDCSVEHSIVGERSRLDCGVELKDTFMMGADYYQTESEIASLLAEGKVPIGIGENTKIRKCIIDKNAKIGKNVSIINKDGVQEADRPEEGFYIRSGIIIILEKATIRDGTVI
partner: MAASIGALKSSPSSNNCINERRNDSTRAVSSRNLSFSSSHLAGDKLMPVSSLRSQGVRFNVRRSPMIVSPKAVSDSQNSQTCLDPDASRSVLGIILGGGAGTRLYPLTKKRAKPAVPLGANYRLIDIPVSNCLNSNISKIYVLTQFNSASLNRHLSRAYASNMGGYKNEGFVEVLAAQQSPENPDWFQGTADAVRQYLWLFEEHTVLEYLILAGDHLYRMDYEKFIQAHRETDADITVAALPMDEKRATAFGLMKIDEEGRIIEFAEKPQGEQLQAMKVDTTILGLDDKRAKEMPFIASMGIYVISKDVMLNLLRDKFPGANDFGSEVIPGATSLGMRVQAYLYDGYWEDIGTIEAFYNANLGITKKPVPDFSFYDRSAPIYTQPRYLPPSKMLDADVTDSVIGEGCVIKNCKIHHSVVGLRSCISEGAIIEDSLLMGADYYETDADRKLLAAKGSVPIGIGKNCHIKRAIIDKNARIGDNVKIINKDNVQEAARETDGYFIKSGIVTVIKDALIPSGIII

Variants of: B1
Settings: with glgs_soltu glgs

Variant	effect of a mutation on the interaction
NKIKPGVAYSVITTENDTQTVFVDMPRLERRRANPKDVAAVILGGGEGTKLFPLTSRTATPAVPVGGCYRLIDIPMSNCINSAINKIFVLTQYNSAPLNRHIARTYFGNGVSFGDGFVEVLAATQTPGEAGKKWFQGTADAVRKFIWVFEDAKNKNIENIVVLSGDHLYRMDYMELVQNHIDRNADITLSCAPAEDSRASDFGLVKIDSRGRVVQFAEKPKGFDLKAMQVDTTLVGLSPQDAKKSPYIASMGVYVFKTDVLLKLLKWSYPTSNDFGSEIIPAAIDDYNVQAYIFKDYWEDIGTIKSFYNASLALTQEFPEFQFYDPKTPFYTSPRFLPPTKADNCKIKDAIISHGCFLRDCSVEHSIVGERSRLDCGVELKDTFMMGADYYQTESEIASLLAEGKVPIGIGENTKIRKCIIDKNAKIGKNVSIINKDGVQEADRPEEGFYIRSGIIIILEKATIRDGTVI [I342A]	disrupting interaction
NKIKPGVAYSVITTENDTQTVFVDMPRLERRRANPKDVAAVILGGGEGTKLFPLTSRTATPAVPVGGCYRLIDIPMSNCINSAINKIFVLTQYNSAPLNRHIARTYFGNGVSFGDGFVEVLAATQTPGEAGKKWFQGTADAVRKFIWVFEDAKNKNIENIVVLSGDHLYRMDYMELVQNHIDRNADITLSCAPAEDSRASDFGLVKIDSRGRVVQFAEKPKGFDLKAMQVDTTLVGLSPQDAKKSPYIASMGVYVFKTDVLLKLLKWSYPTSNDFGSEIIPAAIDDYNVQAYIFKDYWEDIGTIKSFYNASLALTQEFPEFQFYDPKTPFYTSPRFLPPTKIDNCKAKDAIISHGCFLRDCSVEHSIVGERSRLDCGVELKDTFMMGADYYQTESEIASLLAEGKVPIGIGENTKIRKCIIDKNAKIGKNVSIINKDGVQEADRPEEGFYIRSGIIIILEKATIRDGTVI [I347A]	disrupting interaction
NKIKPGVAYSVITTENDTQTVFVDMPRLERRRANPKDVAAVILGGGEGTKLFPLTSRTATPAVPVGGCYRLIDIPMSNCINSAINKIFVLTQYNSAPLNRHIARTYFGNGVSFGDGFVEVLAATQTPGEAGKKWFQGTADAVRKFIWVFEDAKNKNIENIVVLSGDHLYRMDYMELVQNHIDRNADITLSCAPAEDSRASDFGLVKIDSRGRVVQFAEKPKGFDLKAMQVDTTLVGLSPQDAKKSPYIASMGVYVFKTDVLLKLLKWSYPTSNDFGSEIIPAAIDDYNVQAYIFKDYWEDIGTIKSFYNASLALTQEFPEFQFYDPKTPFYTSPRFLPPTKIDNCKIKDAAASHGCFLRDCSVEHSIVGERSRLDCGVELKDTFMMGADYYQTESEIASLLAEGKVPIGIGENTKIRKCIIDKNAKIGKNVSIINKDGVQEADRPEEGFYIRSGIIIILEKATIRDGTVI [I351A;I352A]	disrupting interaction

Results, then the variant that gave them:

effect of a mutation on the interaction	Variant
disrupting interaction	NKIKPGVAYSVITTENDTQTVFVDMPRLERRRANPKDVAAVILGGGEGTKLFPLTSRTATPAVPVGGCYRLIDIPMSNCINSAINKIFVLTQYNSAPLNAHIARTYFGNGVSFGDGFVEVLAATQTPGEAGKKWFQGTADAVRKFIWVFEDAKNKNIENIVVLSGDHLYRMDYMELVQNHIDRNADITLSCAPAEDSRASDFGLVKIDSRGRVVQFAEKPKGFDLKAMQVDTTLVGLSPQDAKKSPYIASMGVYVFKTDVLLKLLKWSYPTSNDFGSEIIPAAIDDYNVQAYIFKDYWEDIGTIKSFYNASLALTQEFPEFQFYDPKTPFYTSPRFLPPTKIDNCKIKDAIISHGCFLRDCSVEHSIVGERSRLDCGVELKDTFMMGADYYQTESEIASLLAEGKVPIGIGENTKIRKCIIDKNAKIGKNVSIINKDGVQEADRPEEGFYIRSGIIIILEKATIRDGTVI [R100A]
disrupting interaction	NKIKPGVAYSVITTENDTQTVFVDMPRLERRRANPKDVAAVILGGGEGTKLFPLTSRTATPAVPVGGCYRLIDIPMSNCINSAINKIFVLTQYNSAPLNRHIARTYFGNGVSFGDGFVEVLAATQTPGEAGKKWFQGTADAVRKFIWVFEDAKNKNIENIVVLSGDHLYRMDYMELVQNHIDRNADITLSCAPAEDSRASDFGLVKIDSRGRVVQFAEKPKGFDLKAMQVDTTLVGLSPQDAKKSPYIASMGVYVFKTDVLLKLLKWSYPTSNDFGSEIIPAAIDDYNVQAYIFKDYWEDIGTIKSFYNASLALTQEFPEFQFYDPKTPFYTSPRFLPATKIDNCKIKDAIISHGCFLRDCSVEHSIVGERSRLDCGVELKDTFMMGADYYQTESEIASLLAEGKVPIGIGENTKIRKCIIDKNAKIGKNVSIINKDGVQEADRPEEGFYIRSGIIIILEKATIRDGTVI [P339A]
